Measurements published in patent US20180135109, “EVALUATION OF CAS9 MOLECULE/GUIDE RNA MOLECULE COMPLEXES” (EDITAS MEDICINE, INC., published 2018).

Biological target: Cas9 (Streptococcus pyogenes, UniProt Q99ZW2 SEQ:1-1368)
Assay: DSF, no thermal shift with alien gRNA; 10 mM Hepes pH 7.5, 150 mM NaCl; 1 uM gRNA
Conditions: gRNA scaffold; printed as encoding DNA
Protocol: DSF was also used to examine Cas9 molecule/gRNA molecule complexes. S. pyogenes Cas9 alone, S. pyogenes Cas9 with 1 μM S. pyogenes gRNA, and S. pyogenes Cas9 with 1 μM S. aureus gRNA were tested in H150 (10 mM Hepes pH 7.5, 150 mM NaCl). The DNA sequences encoding the gRNA molecules used in these experiments were: […]

Chain of Cas9 (Q99ZW2 whole entry): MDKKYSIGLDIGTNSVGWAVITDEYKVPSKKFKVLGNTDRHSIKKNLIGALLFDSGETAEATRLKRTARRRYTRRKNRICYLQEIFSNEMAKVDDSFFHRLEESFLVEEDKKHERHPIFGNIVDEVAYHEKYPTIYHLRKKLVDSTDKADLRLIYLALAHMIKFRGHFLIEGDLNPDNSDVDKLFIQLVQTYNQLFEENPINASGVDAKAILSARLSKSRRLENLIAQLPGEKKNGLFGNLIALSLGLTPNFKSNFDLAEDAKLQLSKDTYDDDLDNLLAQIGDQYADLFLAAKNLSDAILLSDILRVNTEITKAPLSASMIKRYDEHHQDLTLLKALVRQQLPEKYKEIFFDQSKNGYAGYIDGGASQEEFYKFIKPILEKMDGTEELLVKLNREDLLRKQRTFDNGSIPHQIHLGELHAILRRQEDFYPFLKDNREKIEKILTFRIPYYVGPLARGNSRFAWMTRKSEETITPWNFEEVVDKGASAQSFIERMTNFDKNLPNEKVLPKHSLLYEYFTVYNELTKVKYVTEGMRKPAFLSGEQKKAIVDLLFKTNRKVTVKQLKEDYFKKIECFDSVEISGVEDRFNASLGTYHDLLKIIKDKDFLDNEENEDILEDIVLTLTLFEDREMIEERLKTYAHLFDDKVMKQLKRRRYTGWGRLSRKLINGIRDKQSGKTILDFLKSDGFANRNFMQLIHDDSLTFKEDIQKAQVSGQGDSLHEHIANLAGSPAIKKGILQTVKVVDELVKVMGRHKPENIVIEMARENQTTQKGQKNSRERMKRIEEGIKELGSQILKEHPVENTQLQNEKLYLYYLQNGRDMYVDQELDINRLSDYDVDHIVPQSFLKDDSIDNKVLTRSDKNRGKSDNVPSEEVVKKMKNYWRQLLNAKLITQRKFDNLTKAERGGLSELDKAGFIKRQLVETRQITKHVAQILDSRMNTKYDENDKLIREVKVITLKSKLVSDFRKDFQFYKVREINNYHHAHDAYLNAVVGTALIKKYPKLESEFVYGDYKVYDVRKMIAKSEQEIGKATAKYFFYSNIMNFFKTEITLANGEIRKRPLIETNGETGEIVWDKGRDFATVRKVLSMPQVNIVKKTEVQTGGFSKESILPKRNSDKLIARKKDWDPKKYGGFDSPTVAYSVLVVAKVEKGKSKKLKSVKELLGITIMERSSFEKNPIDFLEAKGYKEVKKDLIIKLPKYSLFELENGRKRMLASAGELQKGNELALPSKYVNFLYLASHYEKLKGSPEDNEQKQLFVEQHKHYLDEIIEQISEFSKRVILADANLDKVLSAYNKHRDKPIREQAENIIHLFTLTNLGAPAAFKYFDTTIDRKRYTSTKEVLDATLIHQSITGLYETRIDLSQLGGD

B1: S. aureus gRNA scaffold (ssRNA)
RNA: GUUUUAGUACUCUGGAAACAGAAUCUACUAAAACAAGGCAAAAUGCCGUGUUUAUCUCGUCAACUUGUUGGCGAGAUUUU
  binding result: no binding
